Laboratory results taken from the nanobody polyreactivity screen of Harvey et al. (2022).

Experiment: yeast display, Sf9 membrane polyspecificity reagent, FACS + sequencing; frameworks hold sequencing errors
How it was run: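 Galactose induction of a Saccharomyces cerevisiae BJ5465 synthetic nanobody display library ran 36–48 hours. The cells were then stained for 1 hour at 4 °C with 10% biotinylated, detergent-solubilized Sf9 membrane reagent, pulled down on streptavidin microbeads and FACS-sorted into low and high (top ~1%) gates on expression and reagent-binding fluorescence. Labels for polyreactivity follow the gate of origin.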

Sequence | polyreactivity (PSR sort gate)
QVQLVESGGGLVQAGGSLRLSCAASGRIFVGYAMGWYRQATGKERELVAAISARGGSTYYADSVKGRCTISRDNAKNTVYIQMNSLKPEDTAVYYCAADEASSRGYYDYDYWGQGTQVTVSS | low polyreactivity
QVQLVESGGGLVQAGGSLRLSCAASGRIFELYAMGWYRQAPGKERELVADITTIGDSTYYADSVKGRFTISRDNAKNTVYLQMNSLKPEDTAVYYCAADPYVDSYDSWGQGTQVTVSS | low polyreactivity
QVQLVESGRGLVQAGGSLRLSSAASGSTFHQYTMGWYRQAPGKERELVAGITYRGGSTYADSVKGLFTISRDNAKNTVYLQMNSLKPDDTAVYYCNATPDSVRWDYALSVVRYDYWGQGTQVTVSS | low polyreactivity
QVQLVESGGGLVQAGGSLRLSCAASGSILSYYAMGWYRQAPGKERELVAAITGGGSTYYADSVKGRFTISRDNAKNTVYLQMNCLKPEVTAVYYCAALWWTYGIGYGYWGQGTLVTVSS | high polyreactivity
QVQLVESGGGLVQAGGSLRLSCAASGFIFQYYAMGWYRQAPGKERELVAVIRSGGSTYYADSVKGRFTISRDNAKNTVYLQMNSLKPEDTAVYYCNARRTYLDRYNYWGQGTQVTVSS | high polyreactivity
QVQLVESGGGLVQAGGTLRLSCAASGSTFGYNAMGWYRQAPGKERELVARITSSGGSTYYADSVKGRFTISRDNAKNTVYLQMNSLKPEDTAVYYCAAGYPYRAVYRYYYWGQGTQVTVSS | high polyreactivity
QVQLVESGGGLVQAGGSLRLSCAASGSIFLYYVMGWYRQAPGKERELVAAITWDGGSTYYADSVKGRFTISRDNAKNTVYLQMNSLKPEDTAVYYCNADTIVAWFDIFEEMDSWGQGTQVTVSS | low polyreactivity
QVQLVESGGGLVQAGGSLRLICAASGSTFIPNAMGWYRQSPGKERELVAAISTGGSTNYADSVKGRFTISRDNAKNTVYLQINCLKPEDTAVYYCNARRGYYNPGRRFYYWGQGTQVTVSS | low polyreactivity
QVQLVESGGGLVQAGGSLRLSCAASGFIFASYTLGWYRQAPGKERELVAAISRAGSTYYADSVKGRFTISRDNAKNTVYLQMNSLKPEDTAVYYCNAVSWRTSRYDYWGQGTQVTVSS | high polyreactivity
QVQLVESGGGLVQAGGSLRLSCAASGLTLQGYVMGWSRQAPGKERELVAAISTGGSTHYADSVKGRFTISRDNAKNTVYLQMNSLKPEDTAVYYCAAGWVLWFRDPQGRASYYWGQGTQVTVSS | high polyreactivity
QVQLVESGGGLVQAGGSLRLSCAASGSIFKFNAMGWYRQAPGKERELDASITWTGTSTHYADSVKGRFTISRDNAKNTVFLQMNSLKPEDTAVYYCATYLYLWYEKGYTYDYWGQGTQVTVSS | high polyreactivity
QVQLVESGGGLVQAGGSLRLSCAASGSTFHWYDMGWYRPAPGKERELVAGINSSGDGTYYADSVKGRFTISRDNAKNTVYLQMNSLKPEDTAVYYCAAEYYTYWGYEDDYWGQGTQVTVSS | low polyreactivity
QLQLVESGGGLVQAGGSLRLSCAASGSIFSRNAMGWYRQAPAKERELVAGISTGGSTNYADSVKGRFTISRDNAKNTVYLLMNSLKTEVTAVYYCAAPLAYEGDYWGQGTQVTVSS | low polyreactivity
QVQLVESGGGLVQAGGSLRLSCAASGFIFDRYAMGWYRQAPGKERELVAAITGSGGSTYYADSVKGRFTISRDNAKNTVYLQMNSLKPEDTAVYYCAAESYVYFALFYVSIPYYYWGQGTQVTVSS | high polyreactivity
QVQLVESGGGLVQAGGSLRLSCAASGSIFVTNAMGWYRQEPGKERELVAAISVSGGSTFYADSVKGRFTISRDNAKNTVYLQMNSLKPEDTAVYYCNTVRSPPGHDYWGQGTQVTVSS | low polyreactivity
QVQLVESGGGLVQAGGSLRLSCAASGGTFVRYAMGWYRQAPGKERELVAAISRSGGSTYYADSVKGRFTISRDNAKNTVYLQMNSLKPEDTAVFYCNKDRQRYGEDYWGQGTQVTVSS | high polyreactivity
QVQLVESGGGLVQAGGSLRLSCAASGSTLASYAMGWYRQAPGKERELVAVIDSGGSTYYADSVKGRFTISRDNAKNTVYLQMNSLKPEDTAVYYCAAGWEFSGVLTLFGYWGQGTQVTVSS | low polyreactivity
QVQLVESGGGLVQAGGSLRLSCAASGSIFSWYAMGWYRQAPGKEREFVAAITWGTGGTYYADSVKGRFTISRDNAKNTVYLQMNSLKLEDTAVYYCAKTRSYGRSGVSRRYGFYYWGQGTQVTVSS | high polyreactivity
QVQLVESGGGLVQAGGSLRLSCAASRMGWYRQAPGKERELVARISGGVSTNYADSVRGRFTISRDNAKNTVYLQMNSVKPEDTAVYYCAADPLDTYDYWGQGTQATVSS | low polyreactivity
QVQLVESRGGLVQAGGSLRLSCAASGFTFVYYTMGWYRQAPGKERELVAAINWSGGSTYYADSVKGRFTISRDNAKNTVYLQMNSLKPEDTAVYYCAADTSYYPYEYWGQGTQVTVSS | high polyreactivity
QVLLVESGGGLVQAGGSLRLSCAASGSIFYGYPMGWYRQAPGKERELVADIRSSGGSTYYADSVKGRFTISRDNAMNTVYLQMNSLKPEDTAVYYCAADSQELHQNSDYWGQGTQVTVSS | low polyreactivity

Sequence | polyreactivity (PSR sort gate)
QVQLVESGGGLVQAGGSLRLSCAASGRTFDRNAMGWYRQAPGKERELVAAITSRGGRTYYADSVKGRFTISRDNAKNTVYLQMKSLKPEDTAVYYCAADLFSSRVRSNFDYWGQGTQVTVSS | high polyreactivity
QVQLVESGGGLVQAGGSLRLSCAASGLIFADNAMGWYRQAPGKEWELVASITLGDTSTYYADSVKGRFTISRYNAKNTVYLQMNSLKPEDTAVYYCAKDVYPSVSLYELPDDYWGQGTQVTVSS | low polyreactivity
QVQLVESGGGLVQAGGSLRLSCAASGIIFPRYAMGWYIQAPGKERELVAAITKRGGSTYYADSVKGRFTISRDNANNTVYLQMNSLKPEDTAVYYCARVWSRRYGGWYRNYDYWGQGTKVTVSS | high polyreactivity
QVQLQESGGGLVQAGGSLRLSCAASCTISQEDCMGWYRQAPGKVREFVAAIGLGSNTNYADSLKGRFTISRDNAKNTVYLQMNRLKPEDTAVYYCAVSVWQYSDHVYRGQGTQVTVSS | low polyreactivity
QVQLVESGGGLVQAGGSLRLSCAASGRTFEYNAMGWYRQAPGKERELVATIRYSGTSTYADSVKGRFTISRDNAKNTVYFQMNSLKPEDTAVYYCAKQVRYYGYKYNYWGQGTQVTVSS | high polyreactivity
QVQLVESGGGLVQAGGSLRLSCAASGSTLRAYAMGWYRQAPGKERELVATITRGARTNYADSVKGRFTISRDNAKNTVYLQMNSLKPEDTAVYYCAARSYGSQLSRQVYYWGQGTQVTVSS | high polyreactivity
QVQLVQSGGGLVQAGGSLRLSCAASGIIFFKYAMGWYRQAPGKERELVAAITESTSSTYYADSVKGRFTISRDNAKNTVYLEMNSMKTEDTAVYYCAARVSQWLPYGGYSRYYYWGQGTQVTVSS | high polyreactivity
QVQLVESGGGLVQAGGSLRLSCAASGFTLRGNAMGWYRQAPGKESELVAAISTGGSTYNADSVKGRFTISRDNAKITVYLQMNSLNPEDTAVYYCARRGWFHYRYYYWGQGSQVTVSS | high polyreactivity
QVQLVESGGGLVQAGGSLRLSCAASGGIFYGYAMGWYRQAPGKERELVASITSDGSTYADSVKGRFTISRDNAKNTVYLQMNSLKPEDTAVYYCNKEILVIVTYDYWGQGTQVTVSS | low polyreactivity
QVQLVESGGGLVQAGGSPRLSCAASGSIFSRNTMGWYRQAPGKERELVATITSGSNTNYADSVKGRFTISRDNAKNTVYLQMNSLKPEDTAVYYWGQGTQVTVSS | low polyreactivity
QVQLVESGGGLVQAGGSLRLSCAASGRILRDYDMGWYRQSPGKERELVAAINWSDGSTYYADSVKGRFTISRDNAKNTVYLQMNSLKPEDPAVYYCAASRWRPLERGTTWLHDYWGQGTQVTVSS | low polyreactivity
QVQLVESGGGLVQAGGSLRLSCAASGSILGINVMGWYRQAPGKERELVAAISWRGGRTYYADSVKGRFTISRDNAKNTVYLQMNSLKPEDTAVYYCAAYFYSTSYGADRGVDYWGQGTQVTVSS | high polyreactivity
QVQLVESGGGLVQAGGSLRLSCAASGYIFHRYAMGWYRQAPGKERELVAAITWTGARTYYADSVKGRFTISRDNAKNTVYLQMNSLKPEDTAVYYAAPASYSFAKSGYWGQGTQVTVSS | high polyreactivity
QVQLEESGGGLVQAGGSLRLSCAASGFTFLYNAMGWYRQAPGKERELVASINSGGSTNYADSVKGRVTISRDNAKNTVYLQMNSLKPEDTAVYYCNAKRHVRKGDYWGQGTQVTVSS | low polyreactivity
QVQHVESGGGLVQAGGSLRLSCAASGFIFGRYTMGWYRQAPGKERELVAAISRGGITNYADSVKGRFTISRDNAKNTVYLQMNSLKPEDTAVYYCNAVGVRPGFKGFDYWGQGTQVTVSS | high polyreactivity
QVQLVESGGGLVQAGGSLRLSCAASGITFIRYAMGWYRQAPGKERELVAAISKDGDSTYYADSVKGRFTISRDNAKNTVYLQMNSLKPEDSGVYYCAAQRYSKALYNYWGQGTQVTVSS | high polyreactivity
QVQLVESGGGLVQAGGSLRLSCAASGYISGVYPMGWYRQAPGKERELVAAITKRGGNTYYADSVKGRFTISRDNAKNTVYLQMNSLKAEDTAVYYCAKKTAGHPWGPIYDYWGQGTQVTVSS | high polyreactivity
QVQLVESGGGLVQAGGSLRLSCAASGSTSYYNAMGWYRQAPGKERELVAAISYSGGRTYYADSVKGRFTISRDNAKNTVYLQMNSLKPEDTAVYYCAKTFRGQPYLRYRYYYWGQGTQVTVSS | high polyreactivity
QVQLVESGGGLVQAGGSLRLSCAASGNTLIQYAMGWYRQAPGKERELVAGISGSDDSTYYADSVKGRFTISRDNAKNTVYLQMNSLKPEDTAVYYCAAQVDRWKGREHDYWGQGTQVTVSS | low polyreactivity
QVQLVESRGGLVQAGGSLRLSCAASGSIFPVYAMGWYRQATGKERELVASISSSGGRTYYADSVKGRFTISRDNAKNTVYLQMNSLKPEDTAVYYCAAGAFHGVFWYEYWGQGTQVTVSS | high polyreactivity
